Assay results taken from US20210190796A1 (AB STUDIO, published 2021).

T1: (EAR)3 peptide
T1 construct: Synthetic substrate peptide coated on the ELISA plate
T1 peptide: EAREAREAR


What was measured:
(EAR)3 peptide = molecular target: T1, (EAR)3 peptide; test: ELISA, (EAR)3 peptide coated, antibody at 100 µg/mL
Aβ (1-42) peptide [1] = molecular target: T2, Aβ (1-42) peptide (UniProt P05067 672-713); test: ELISA, Aβ(1-42) coated
T2 construct: domain: Aβ (1-42) peptide; also called Aβ42
Protocol: (§1) Briefly, an ELISA plate was coated with an Aβ (1-42) peptide at 1 μg/mL in a coating buffer (0.2M sodium carbonate-bicarbonate buffer, pH 9.4), 100 μL/well at 4° C. overnight. The Aβ peptide was removed and the plate was washed three times with 250 μL/well of a washing buffer (PBST). The plate was then blocked with 200 μL/well of a blocking buffer (1% BSA in PBST) for 1 hour at room temperature, and washed two times with 250 μL/well of the washing buffer. To each well of the plate was added 100 μL of the antibody sample (3× serial dilution in the range of 3 ng/mL to 20 μg/mL) and incubated at room temperature for 1 hour. […] The plate was then washed three times with 250 μL/well of the washing buffer. HRP substrate (Amplex Red and H₂O₂) was prepared freshly with a developing buffer (3.6 mM Na₂HPO₄, 1.4 mM NaH₂PO₄, at pH7.2), and 100 μL of the HRP substrate was added to each well and incubated for 1-60 minutes. Signals were subsequently detected using a plate reader (Excitation wavelength=530 nm, Emission wavelength=590 nm, and cutoff wavelength =570 nm).

Aβ (1-42) peptide [2] = molecular target: T2, Aβ (1-42) peptide; test: ELISA, Aβ(1-42) coated at 1 µg/mL, antibody titrated 3 ng/mL to 20 µg/mL
Protocol: as §1

T2 sequence (P05067 672-713 limits assumed): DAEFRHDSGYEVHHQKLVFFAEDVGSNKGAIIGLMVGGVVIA

binding result ((EAR)3 peptide)	binding result (Aβ (1-42) peptide [1])	Binder	other results
binds		3D6-D (antibody, V domains shown, It was detected with anti-human IgG; also called 3D6-D antibody; 3D6-D catabody) VH: EVKLVESGGGLVKPGASLKLSCAASGFTFSNYGMSWVRQNSDKRLEWVASIRSGGGRTYYSDNVKGRFTISRENAKNTLYLQMSSLKSEDTALYYCVRYDHYSGSSDYWGQGTTVTVSS VL: not shown	
binds		3D6 (antibody, V domains shown, Non-catalytic anti-Aβ antibody, the parental murine antibody of bapineuzumab; An IgG1 isotype control and anti-human IgG detection were used; also called 3D6-Y; wild type 3D6 antibody) VH: EVKLVESGGGLVKPGASLKLSCAASGFTFSNYGMSWVRQNSDKRLEWVASIRSGGGRTYYSDNVKGRFTISRENAKNTLYLQMSSLKSEDTALYYCVRYDHYSGSSDYWGQGTTVTVSS VL: not shown	
	binds	hu3D6-D H1L1 (antibody, V domains shown, It was detected with goat anti-human IgG; also called hu3D6-D HIL1; humanized 3D6-D catabody) VH: EVQLVESGGGLVQPGGSLRLSCAASGFTFSNYGMSWVRQAPDKRLEWVASIRSGGGRTYYSDNVKGRFTISRDNAKNTLYLQMNSLRAEDTALYYCVRYDHYSGSSDYWGQGTLVTVSS VL: not shown	
	binds	hu3D6-D H1L2 (antibody, V domains shown, It was detected with goat anti-human IgG; also called hu3D6-D HIL2; hu3D6-D HISL2) VH: EVQLVESGGGLVQPGGSLRLSCAASGFTFSNYGMSWVRQAPDKRLEWVASIRSGGGRTYYSDNVKGRFTISRDNAKNTLYLQMNSLRAEDTALYYCVRYDHYSGSSDYWGQGTLVTVSS VL: not shown	
		bapineuzumab (antibody, V domains shown, also called humanized 3D6-Y; hu3D6-Y) VH: EVQLLESGGGLVQPGGSLRLSCAASGFTFSNYGMSWVRQAPGKGLEWVASIRSGGGRTYYSDNVKGRFTISRDNAKNSLYLQMNSLRAEDTALYYCVRYDHYSGSSDYWGQGTLVTVSS VL: YVVMTQSPLSLPVTPGEPASISCKSSQSLLDSDGKTYLNWLLQKPGQSPQRLIYLVSKLDSGVPDRFSGSGSGTDFTLKISRVEAEDVGVYYCWQGTHFPRTFGQGTKVEIKR	binding result (Aβ (1-42) peptide [2]): binds
